Source: US20190241653A1 (NATIONAL RESEARCH COUNCIL OF CANADA, published 2019)

Columns and labels:
[1] = target: receptor(s) of FC5 on SV-ARBEC cells (SV40-immortalized adult rat brain microvascular endothelial cells) (rat) (UniProt Q6AY41); assay: Mirrorball microplate cytometry on SV-ARBEC cells in suspension, anti-c-myc Alexa 488 detection
[2] = target: T1, receptor(s) of FC5 on HBEC-D3 cells (human microvascular brain endothelial cells) (human, UniProt Q9NV96 2-361); assay: Mirrorball microplate cytometry on HBEC-D3 cells in suspension, anti-c-myc Alexa 488 detection
T1 construct: whole, on cells; The assay used whole, untransfected endothelial cells; also called human brain endothelial cells; TMEM30A
T1 sequence (looked up): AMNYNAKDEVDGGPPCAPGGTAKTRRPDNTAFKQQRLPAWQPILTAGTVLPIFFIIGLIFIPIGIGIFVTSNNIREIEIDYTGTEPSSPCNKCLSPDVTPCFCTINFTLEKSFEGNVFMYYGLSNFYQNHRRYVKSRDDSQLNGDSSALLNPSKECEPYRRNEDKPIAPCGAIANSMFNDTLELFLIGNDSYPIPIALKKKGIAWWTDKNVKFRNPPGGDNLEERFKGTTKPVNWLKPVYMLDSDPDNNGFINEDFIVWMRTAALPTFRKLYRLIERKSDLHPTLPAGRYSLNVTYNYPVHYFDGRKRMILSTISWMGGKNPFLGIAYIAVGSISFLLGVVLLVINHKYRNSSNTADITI
Procedure: Mirrorball 6 High Sensitivity Microplate Cytometry (TTP Labtech): All buffers and reagents were pre-chilled to 4° C. […] mM EDTA and Mirrorball assay buffer—Live Cell Imaging Solution, LCIB (Invitrogen, 140 mM NaCl, 2.5 mM KCl, 1.8 mM CaCl₂, 1.0 mM MgCl₂, 20 mM Hepes, pH 7.4, mOsm=300). A 20 μl volume of a 1:1 mix of LCIB and 0.5×PBS/2.5 mM EDTA was added to all wells of each 384 well Mirrorball assay plate (Corning 3712); with the exception of row A which received 40 μl of 1000 nM test VHH antibody. Serial dilutions were prepared for each test variant within the Mirrorball 384 well assay plate. A 16-channel Finn pipette (Thermo Scientific) was used to transfer 20 μl of VHH antibody from row A-columns 1-24 into row B-columns 1-24 mixing 8×, then transferring 20 μl of VHH antibody from row B-columns 1-24 into row C-columns 1-24 mixing 8×. Dilutions were repeated until row G-columns 1-24 to create 7 point curve for each VHH antibody variant. A second set of test VHH antibody variants (1000 nM) were added to row I-columns 1-24 and the dilution protocol was repeated until row 0-columns 1-24. Row H-columns 1-24 were reserved on each plate for the reference FC5-H7 VHH single domain antibody. Row P-columns 1-24 received no antibody; this was background control for non-specific binding of the secondary to the cells of interest; thus 48 variants could be tested on each 384 well Mirrorball assay plate. Immortalized adult rat brain microvascular endothelial cells (SV-ARBEC) and/or human microvascular brain endothelial cells (HBEC-D3) were dissociated in Accutase solution (Sigma Aldrich) to generate single cell populations. Cells were washed in LCIB then centrifuged at 200×g, 5 min to pellet. Wash buffer was removed and the cell pellet was re-suspended into 1 mL of LCIB. Cell number was calculated using a Bio-Rad TC20 automated cell counter with Trypan Blue dye to assess viability. The cells were diluted to 350,000 live cells/ml using LCIB. A fluorescent conjugate c-myc Alexa 488 detection antibody (1600 ng/ml, Santa Cruz Biotechnology) supplemented with Draq 5 nuclear stain (2 uM, Cell Signaling) was prepared in LCIB assay buffer.

B1: FC5-H1 (VHH)
VHH: EVQLVESGGGLVQPGGSLRLSCAASGFKITHYTMGWVRQAPGKGLEWVSRITWGGDNTFYSNSVKGRFTISRDNSKNTLYLQMNSLRAEDTAVYYCAAGSTSTATPLRVDYWGQGTLVTVSS
notes: Humanized variant of FC5, expressed with His5 and c-myc tags; not shown: His5 and c-myc tags
SV-ARBEC binding (MMFI at 1.3 µM antibody) [1]: 27 MMFI
HBEC-D3 binding (MMFI at 1.3 µM antibody) [2]: 66.4 MMFI

B2: FC5-H2 (VHH)
VHH: EVQLVESGGGLVQPGGSLRLSCAASGFKITHYTMGWVRQAPGKGLEWVSRITWGGDNTFYSNSVKGRFTISRDNSKNTVYLQMNSLRAEDTAVYYCAAGSTSTATPLRVDYWGQGTLVTVSS
notes: as for B1
SV-ARBEC binding (MMFI at 1.3 µM antibody) [1]: 23.1 MMFI
HBEC-D3 binding (MMFI at 1.3 µM antibody) [2]: 31 MMFI

B3: FC5 VHH (parental camelid single domain antibody) (VHH)
VHH: DVQLQASGGGLVQAGGSLRLSCAASGFKITHYTMGWFRQAPGKEREFVSRITWGGDNTFYSNSVKGRFTISRDNAKNTVYLQMNSLKPEDTADYYCAAGSTSTATPLRVDYWGKGTQVTVSS
notes: Llama-derived VHH expressed in E. coli in fusion with His5 and c-myc tags; also called FC5 camelid; sdAb FC5; not shown: His5 and c-myc tags
SV-ARBEC binding (MMFI at 1.3 µM antibody) [1]: 20.3 MMFI
HBEC-D3 binding (MMFI at 1.3 µM antibody) [2]: 39.1 MMFI

B4: FC5-H3 (VHH)
VHH: EVQLVESGGGLVQPGGSLRLSCAASGFKITHYTMGWFRQAPGKGLEFVSRITWGGDNTFYSNSVKGRFTISRDNSKNTVYLQMNSLRAEDTAVYYCAAGSTSTATPLRVDYWGQGTLVTVSS
notes: as for B1
SV-ARBEC binding (MMFI at 1.3 µM antibody) [1]: 40.2 MMFI
HBEC-D3 binding (MMFI at 1.3 µM antibody) [2]: 43.9 MMFI

B5: FC5-H7 (VHH)
VHH: EVQLVESGGGLVQPGGSLRLSCAASGFKITHYTMGWFRQAPGKEREFVSRITWGGDNTFYSNSVKGRFTISRDNSKNTLYLQMNSLRAEDTAVYYCAAGSTSTATPLRVDYWGQGTLVTVSS
notes: as for B1
SV-ARBEC binding (MMFI at 1.3 µM antibody) [1]: 64.2 MMFI
HBEC-D3 binding (MMFI at 1.3 µM antibody) [2]: 72.8 MMFI
